In article PMC4873976, “Structural basis for haem piracy from host haemopexin by Haemophilus influenzae” (Nature Communications, 2016):

What was measured:
[1] = target: cysteine-less variant of HxuA^DEL (Haemophilus influenzae) (UniProt P44602); assay: ITC; haemopexin or its fragments (~100 μM) in the syringe, HxuA (~10 μM) in the cell; 20 mM Na-phosphate pH 7.0, 25 °C; single-site model; apparent Ka
[2] = target: T1, HxuA (cysteine-less variant, Cys855 and Cys861 replaced by serines; referred to as HxuA throughout) (Haemophilus influenzae, UniProt P44602 22-905, Cys855 replaced by serine | Cys861 replaced by serine); assay: ITC; haemopexin or its fragment (~100 uM) in the syringe, HxuA or mutant (~10 uM) in the cell; 25 °C; 20 mM Na-phosphate pH 7.0; single-site model; apparent Ka; mean of one to three experiments; conditions: both partners purified
T1 construct: also called WT; HxuAWT; source: E. coli BL21 with a pBAD24 derivative harbouring the hxuCBA operon; purified from the culture supernatant (ammonium sulfate, SEC, monoQ)
T1 sequence: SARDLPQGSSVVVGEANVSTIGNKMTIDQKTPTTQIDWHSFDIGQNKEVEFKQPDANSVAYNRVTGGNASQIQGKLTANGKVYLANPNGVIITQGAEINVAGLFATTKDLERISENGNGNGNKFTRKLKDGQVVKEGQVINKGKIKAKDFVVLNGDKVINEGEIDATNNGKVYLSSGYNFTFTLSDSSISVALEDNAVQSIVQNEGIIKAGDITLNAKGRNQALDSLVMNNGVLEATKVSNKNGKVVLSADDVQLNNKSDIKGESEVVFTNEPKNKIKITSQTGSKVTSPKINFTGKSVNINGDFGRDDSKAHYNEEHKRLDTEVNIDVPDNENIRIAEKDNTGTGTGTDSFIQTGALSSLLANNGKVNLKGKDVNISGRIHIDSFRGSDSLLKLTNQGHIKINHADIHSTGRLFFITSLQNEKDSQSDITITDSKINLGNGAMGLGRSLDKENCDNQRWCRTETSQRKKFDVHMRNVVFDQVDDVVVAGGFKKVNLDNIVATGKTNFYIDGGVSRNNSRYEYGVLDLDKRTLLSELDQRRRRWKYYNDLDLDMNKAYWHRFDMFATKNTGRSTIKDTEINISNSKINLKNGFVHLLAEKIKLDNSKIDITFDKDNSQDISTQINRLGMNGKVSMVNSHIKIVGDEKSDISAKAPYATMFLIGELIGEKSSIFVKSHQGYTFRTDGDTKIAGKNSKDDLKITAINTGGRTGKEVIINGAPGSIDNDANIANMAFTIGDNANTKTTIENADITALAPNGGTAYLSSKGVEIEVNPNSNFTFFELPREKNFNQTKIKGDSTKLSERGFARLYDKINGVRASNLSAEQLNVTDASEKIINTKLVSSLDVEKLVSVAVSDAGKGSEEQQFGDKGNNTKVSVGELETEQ

[3] = target: T2, HxuA, cysteine-less variant (cysteines 855 and 861 replaced by serines; referred to as HxuA throughout) (Haemophilus influenzae, UniProt P44602 22-905, cysteine at position 855 replaced by serine | cysteine at position 861 replaced …); assay: ITC; haemopexin or its fragments (~100 μM) in the syringe, HxuA (~10 μM) in the cell; 20 mM Na-phosphate pH 7.0, 25 °C; single-site model; apparent Ka; conditions: both partners purified
T2 construct: HxuA, haem-haemopexin utilisation protein A (TpsA cargo protein) of Haemophilus influenzae, called full-length, 884 residues, Ser1 to Gln884; Measured mass 96,467.6094 (theoretical 96,469.6926); also called HxuAdm; dm variant; source: E. coli BL21, pBAD24 derivative with the hxuCBA operon; purified from the culture supernatant (ammonium sulfate, SEC, monoQ)
T2 sequence: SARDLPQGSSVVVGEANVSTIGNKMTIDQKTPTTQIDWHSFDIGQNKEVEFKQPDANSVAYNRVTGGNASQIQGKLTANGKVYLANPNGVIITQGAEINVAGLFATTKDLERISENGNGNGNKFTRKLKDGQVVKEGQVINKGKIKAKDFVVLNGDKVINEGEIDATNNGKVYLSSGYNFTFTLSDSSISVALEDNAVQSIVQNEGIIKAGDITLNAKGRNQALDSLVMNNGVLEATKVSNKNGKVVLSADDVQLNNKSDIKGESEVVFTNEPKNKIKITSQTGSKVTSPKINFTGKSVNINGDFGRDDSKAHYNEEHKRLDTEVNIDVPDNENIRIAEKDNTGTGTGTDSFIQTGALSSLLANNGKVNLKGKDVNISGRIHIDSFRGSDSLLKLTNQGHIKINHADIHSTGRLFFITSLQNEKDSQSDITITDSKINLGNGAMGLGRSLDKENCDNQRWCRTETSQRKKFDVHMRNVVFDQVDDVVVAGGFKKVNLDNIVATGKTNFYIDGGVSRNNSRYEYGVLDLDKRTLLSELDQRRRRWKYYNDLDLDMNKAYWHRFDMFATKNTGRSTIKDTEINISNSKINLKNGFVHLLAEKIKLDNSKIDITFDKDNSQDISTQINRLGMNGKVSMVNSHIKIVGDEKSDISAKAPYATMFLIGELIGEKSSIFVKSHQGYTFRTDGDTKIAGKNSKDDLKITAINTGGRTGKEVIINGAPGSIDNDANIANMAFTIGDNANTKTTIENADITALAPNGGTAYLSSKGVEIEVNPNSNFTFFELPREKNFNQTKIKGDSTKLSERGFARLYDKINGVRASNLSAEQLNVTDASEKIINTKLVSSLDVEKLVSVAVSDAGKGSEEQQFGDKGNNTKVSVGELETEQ

rabbit haem-haemopexin (from UniProt P20058 26-460) (natural protein)
Ka [1]: 1.7e+08 M⁻¹ | dH [1]: -13 kcal/mol | stoichiometry N [1]: 1

B1: N-terminal domain of rabbit haemopexin (domain or fragment)
chain: VPLTSAHGNVTEGESGTKPEADVIEQCSDGWSFDATTLDDNGTMLFFKDEFVWKSHRGIRELISERWKNFIGPVDAAFRHGHTSVYLIKGDKVWVYTSEKNEKVYPKSLQDEFPGIPFPLDAAVECHRGECQDEGILFFQGNRKWFWDLTTGTKKERSWPAVGNCTSALRWLGRYYCFQGNQFLRFNPVSGEVPPGYPLDVRDYFLSCPGRGHR
notes: haemopexin, rabbit, N-terminal fragment; The results call the domain residues 1-208; the fragment itself ends at Arg214; also called NtHpx; NterHpx; source: trypsin digestion of haemopexin purified from rabbit serum; purified (mono S, SEC)
Ka [2]: 7.6e+07 M⁻¹ | stoichiometry N [2]: 0.88

B2: N-terminal domain of rabbit haemopexin (domain or fragment)
chain: VPLTSAHGNVTEGESGTKPEADVIEQCSDGWSFDATTLDDNGTMLFFKDEFVWKSHRGIRELISERWKNFIGPVDAAFRHGHTSVYLIKGDKVWVYTSEKNEKVYPKSLQDEFPGIPFPLDAAVECHRGECQDEGILFFQGNRKWFWDLTTGTKKERSWPAVGNCTSALRWLGRYYCFQGNQFLRFNPVSGEVPPGYPLDVRDYFLSCPGRGHR
notes: haemopexin, rabbit, N-terminal tryptic fragment: cleaved in the linker after Arg 214; also called NtHpx; NterHpx; source: trypsin digestion of haemopexin purified from rabbit serum; purified (mono S, SEC)
dH [3]: -48.5 kcal/mol | stoichiometry N [3]: ~1
